Data taken from patent US20110039729A1.

How the values were obtained:
[1] = biological target: soybean agglutinin (SBA), GalNAc-specific lectin (soybean) (UniProt P05046); experiment: single SBA panning step, 8×10^10 aglycosylated phage applied
[2] = biological target: soybean agglutinin (SBA), GalNAc-specific lectin (soybean) (UniProt P05046)
[3] = biological target: soybean agglutinin (SBA), GalNAc-specific lectin (soybean) (UniProt P05046); experiment: single SBA panning step, 8×10^6 cfu glycophage alone
[4] = biological target: soybean agglutinin (SBA), GalNAc-specific lectin (soybean) (UniProt P05046); experiment: single SBA panning step, glycophage with 10^2-fold excess of aglycosylated phage
[5] = biological target: soybean agglutinin (SBA), GalNAc-specific lectin (soybean) (UniProt P05046); experiment: single SBA panning step, 8×10^6 cfu glycophage mixed with an equal amount of aglycosylated phage
[6] = biological target: soybean agglutinin (SBA), GalNAc-specific lectin (soybean) (UniProt P05046); experiment: single SBA panning step, glycophage with 10^4-fold excess of aglycosylated phage

Chain of UniProt P05046 (P05046 33-285 limits assumed): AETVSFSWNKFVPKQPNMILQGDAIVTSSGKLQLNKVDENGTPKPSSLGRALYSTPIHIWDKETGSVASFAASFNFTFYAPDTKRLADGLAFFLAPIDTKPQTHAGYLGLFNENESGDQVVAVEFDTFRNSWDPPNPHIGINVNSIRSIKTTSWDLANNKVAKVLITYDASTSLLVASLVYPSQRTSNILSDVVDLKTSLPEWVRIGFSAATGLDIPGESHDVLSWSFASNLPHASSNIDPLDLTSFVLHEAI

| Substance | infectious particles bound to SBA [1] [cfu] | phage titer in the eluate [2] [cfu/ml] | percent of phages recovered [3] [%] | phages recovered [3] [cfu] | fold increase in phage titer in the eluate [2] [fold] | percent of phage bound by SBA [4] [%] | phage bound by SBA [4] [cfu] | percent of phage bound by SBA [5] [%] | phage bound by SBA [5] [cfu] | percent of phage bound by SBA [6] [%] | phage bound by SBA [6] [cfu] |
| --- | --- | --- | --- | --- | --- | --- | --- | --- | --- | --- | --- |
| non-glycosylated AcrA-g3p fusion protein from TG1 pglmut cells (in lysates and displayed on phage) (from UniProt P69168 19-424) | 38000 | 1000 |  |  |  |  |  |  |  |  |  |
| glycosylated AcrA-g3p fusion protein from TG1 pgl+ cells (in lysates and displayed on phage) (from UniProt P69168 19-424) |  | 1e+06 | 96 | 7.7e+06 | 1000 | 93 | 7.4e+06 | 96 | 7.8e+06 | 79 | 6.3e+06 |
